Values quoted from earlier work as cited in publication PMC10636758.

What was measured:
HP1α (Homo sapiens) = HP1α (Homo sapiens) (UniProt P45973)
[1] = target: Histone H3 peptide (Homo sapiens)

Row | Kd (HP1α (Homo sapiens)) | Kd [1] | Substance
1 | < 1 µM |  | HP1α (from UniProt P45973)
2 |  | 58 µM | HP1α CSD (from UniProt P45973)
